Source: paper doi:10.1101/197848

Target: Xenopus Smc3R626C-Halo (subunit of the hinge-substituted recombinant tetramer, not crosslinked) (Xenopus) (UniProt O93309)
Assay: cross-linking

“Xenopus Smc1D566C (subunit of the hinge-substituted recombinant tetramer) (from UniProt O93308 1-1232) (natural protein)” was tested, and the crosslinking efficiency was 40%.
